Reference: publication PMC9864903, “Imaging of the Glucose-Dependent Insulinotropic Polypeptide Receptor Using a Novel Radiolabeled Peptide Rationally Designed Based on Endogenous GIP and Synthetic Exendin-4 Sequences” (Pharmaceuticals, 2022)

Key:
[1] = dynamic PET/CT organ distribution in pig; assay type: in vivo; conditions: liver, total radioactivity, dynamic PET/CT
From the text: An anesthetized pig (25 kg) was positioned to include the abdomen with pancreas in the center of the 25 cm axial field of view of a Discovery MI PET/CT scanner (GE Healthcare, MI, USA) by assistance of a low-dose CT scout view (140 kV, 10 mAs). The details of the animal handling, preparation, and anesthesia have been previously described.
Attenuation correction was acquired by a 140 kV, 10–80 mA CT examination. The administration of [^68Ga]Ga-C803-GIP (17.3 MBq, corresponding to approximately 2.5 μg peptide or 0.10 μg/kg) was made upon the start of the baseline dynamic scan lasting for 90 min (30 frames; […]). The dynamic scan was followed by a static scan over the brain from 90–120 min post administration. A second PET investigation was performed after an additional 2 h to allow the radioactivity from the first scan to fade from the circulation by decay and excretion.
The GIP(1-42) infusion was continued until the end of the PET scan. Finally, after the last PET scan, a contrast-enhanced CT scan was performed to assist delineation of the tissues, e.g., the pancreas.
Segmentation of the tissues of interest (descending aorta, pancreas, spleen, kidney, liver, and muscle) was performed in PMOD (PMOD Technologies), and time–activity curves were expressed as SUV as detailed above.

[2] = ex vivo organ distribution in Sprague Dawley rats; conditions: rat, i.v.
Procedure: The in vivo organ distribution of [^68Ga]Ga-C803-GIP was assessed in Sprague Dawley rats (324 ± 36 g, male, n = 16). The radiotracer was administered into the tail vein of unsedated animals as a bolus in 0.5–0.6 mL of PBS as the vehicle. The animals received 4.1 ± 2.2 MBq/kg ^68Ga]Ga-C803-GIP corresponding to 2.4 ± 1.3 µg/kg peptide mass.
The in vivo organ distribution was conducted for 5 to 180 min, euthanizing two animals at each of eight time points (5, 10, 20, 40, 60, 90, 120, or 180 min). Samples of blood, heart, lung, liver, pancreas, spleen, adrenal, kidney, small intestine (without/with its content), large intestine (without its content), feces, urinary bladder (rinsed), testis, muscle, bone, bone marrow, thyroid, and brain were immediately harvested, weighed, and measured for radioactivity (gamma counter). The organ uptake of [^68Ga]Ga-C803-GIP was corrected for radioactivity decay to the time point of administration and expressed as standardized uptake values (SUVs, Equation (1)). (1) SUV (1/1)=Radioactivitytissue (Bq)/Weighttissue(g)/Radioactivityinjected (Bq)/Weightbody(g)
The competition experiments were designed and guided by the results of the organ distribution study. Based on the observed rapid clearance of [^68Ga]Ga-C803-GIP from the pancreas (known to contain the GIPR), 20 min post-administration was the time point selected for the blocking studies. The rats (351 ± 23 g, male, n = 8) were administered [^68Ga]Ga-C803-GIP (18.4 ± 3.7 MBq/kg; 10.7 ± 2.2 µg/kg). A high radioactive dose was selected to potentially increase the tissue signal. Half of them (n = 4) received [^68Ga]Ga-C803-GIP alone, while the other half was co-injected with 1 mg/kg of non-labeled C803-GIP. The animals were sacrificed 20 min after the administration of [^68Ga]Ga-C803-GIP, and the tissue uptake of the tracer was analyzed as described above.

[3] = human predicted dosimetry extrapolated from rat organ distribution (OLINDA/EXM 1.1)
Procedure: The predicted dosimetry in humans was calculated using [^68Ga]Ga-C803-GIP organ distribution data obtained in healthy male Sprague Dawley rats. The rat decay-uncorrected SUVs (SUVA) in various organs were normalized to the whole-body adult reference phantom weights (Equation (2)) in order to assess the residence times (MBq-h/MBq) of the tracer in those organs. The data from the measured time points (5, 10, 20, 40, 60, 90, 120, and 180 min) were used for trapezoidal approximation followed by the extrapolation from the last point to infinity by a single exponential fit. The bone marrow blood volume model was used for the determination of the residence time in bone marrow. The absorbed doses were calculated using OLINDA/EXM version 1.1 with reference to adult male and female phantoms (International Commission on Radiological Protection 60). (2) [%/organ]human=SUVA×(gorgan/kgweight)human

SMILES: CC[C@H](C)[C@H](NC(=O)[C@H](CO)NC(=O)[C@H](Cc1ccc(O)cc1)NC(=O)[C@H](CC(=O)O)NC(=O)[C@H](CO)NC(=O)[C@@H](NC(=O)[C@H](Cc1ccccc1)NC(=O)[C@@H](NC(=O)CNC(=O)[C@H](CCC(=O)O)NC(=O)[C@@H](C)NC(=O)[C@@H](N)Cc1ccc(O)cc1)[C@@H](C)O)[C@@H](C)CC)C(=O)N[C@@H](C)C(=O)N[C@@H](CC(C)C)C(=O)N[C@@H](CC(=O)O)C(=O)N[C@@H](CCCCN)C(=O)N[C@H](C(=O)N[C@@H](Cc1c[nH]cn1)C(=O)N[C@@H](CCC(N)=O)C(=O)N[C@@H](CCC(N)=O)C(=O)N[C@@H](CCC(=O)O)C(=O)N[C@@H](Cc1ccccc1)C(=O)N[C@H](C(=O)N[C@@H](CCC(=O)O)C(=O)N[C@@H](Cc1c[nH]c2ccccc12)C(=O)N[C@@H](CC(C)C)C(=O)N[C@@H](CCCCN)C(=O)N[C@@H](C)C(=O)NCC(=O)NCC(=O)N[C@@H](Cc1c[nH]cn1)C(=O)N1CCC[C@H]1C(=O)N[C@@H](CO)C(=O)NCC(=O)N[C@@H](C)C(=O)N1CCC[C@H]1C(=O)N1CCC[C@H]1C(=O)N1CCC[C@H]1C(=O)N[C@@H](CO)C(=O)N[C@@H](CSCCS(=O)(=O)CCN1CCN(CC(=O)O)CCN(CC(=O)O)CCN(CC(=O)O)CC1)C(N)=O)[C@@H](C)CC)[C@@H](C)CC [[^68Ga]Ga-C803-GIP, metal not drawn]
- SUV at 0.5 h ([1]; read-out: uptake in the liver after 30 min): < 1 SUV
- SUV at 1.5 h ([1]; read-out: uptake in the liver after 90 min): ~0.5 SUV
- SUV at 5 min ([2]; male, Sprague Dawley, liver, iv, total radioactivity, 5 min post-administration, read-out: liver uptake): < 1 SUV
- liver washout with respect to the 5 min time point, within 1 h [2]: 50%
- liver washout with respect to the 5 min time point, within 3 h [2]: 75%
- kidney uptake ([2]; within 3 h): 85.5 ± 1.6 SUV
- predicted absorbed radiation dose, kidneys, females ([3]; human): 0.773 mGy/MBq
- predicted absorbed radiation dose, kidneys, males ([3]; human): 0.713 mGy/MBq
- Equivalent dose, Adrenals, Female ([3]; human female phantom): 0.0124 mSv/MBq
- Equivalent dose, Brain, Female ([3]; human female phantom): 0.000658 mSv/MBq
- Equivalent dose, Breasts, Female ([3]; human female phantom): 0.00113 mSv/MBq
- Equivalent dose, Gallbladder Wall, Female ([3]; human female phantom): 0.00555 mSv/MBq
- Equivalent dose, Heart Wall, Female ([3]; human female phantom): 0.0362 mSv/MBq
- Equivalent dose, Kidneys, Female ([3]; human female phantom): 0.773 mSv/MBq
- Equivalent dose, LLI Wall, Female ([3]; human female phantom): 0.00196 mSv/MBq
- Equivalent dose, Liver, Female ([3]; human female phantom): 0.00754 mSv/MBq
- Equivalent dose, Lungs, Female ([3]; human female phantom): 0.0073 mSv/MBq
- Equivalent dose, Muscle, Female ([3]; human female phantom): 0.00306 mSv/MBq
- Equivalent dose, Osteogenic Cells, Female ([3]; human female phantom): 0.0145 mSv/MBq
- Equivalent dose, Pancreas, Female ([3]; human female phantom): 0.0089 mSv/MBq
- Equivalent dose, Red Marrow, Female ([3]; human female phantom): 0.0135 mSv/MBq
- Equivalent dose, Skin, Female ([3]; human female phantom): 0.001 mSv/MBq
- Equivalent dose, Small Intestine, Female ([3]; human female phantom): 0.00398 mSv/MBq
- Equivalent dose, Spleen, Female ([3]; human female phantom): 0.0124 mSv/MBq
- Equivalent dose, Stomach Wall, Female ([3]; human female phantom): 0.00374 mSv/MBq
- Equivalent dose, Testes/Ovaries, Female ([3]; human female phantom): 0.00189 mSv/MBq
- Equivalent dose, Thymus, Female ([3]; human female phantom): 0.00198 mSv/MBq
- Equivalent dose, Thyroid, Female ([3]; human female phantom): 0.000543 mSv/MBq
- Equivalent dose, ULI Wall, Female ([3]; human female phantom): 0.00371 mSv/MBq
- Equivalent dose, Urinary Bladder Wall, Female ([3]; human female phantom): 0.00202 mSv/MBq
- Equivalent dose, Adrenals, Male ([3]; human male phantom): 0.00936 mSv/MBq
- Equivalent dose, Brain, Male ([3]; human male phantom): 0.000541 mSv/MBq
- Equivalent dose, Breasts, Male ([3]; human male phantom): 0.000934 mSv/MBq
- Equivalent dose, Gallbladder Wall, Male ([3]; human male phantom): 0.00515 mSv/MBq
- Equivalent dose, Heart Wall, Male ([3]; human male phantom): 0.0319 mSv/MBq
- Equivalent dose, Kidneys, Male ([3]; human male phantom): 0.713 mSv/MBq
- Equivalent dose, LLI Wall, Male ([3]; human male phantom): 0.00166 mSv/MBq
- Equivalent dose, Liver, Male ([3]; human male phantom): 0.006 mSv/MBq
- Equivalent dose, Lungs, Male ([3]; human male phantom): 0.00576 mSv/MBq
- Equivalent dose, Muscle, Male ([3]; human male phantom): 0.00227 mSv/MBq
- Equivalent dose, Osteogenic Cells, Male ([3]; human male phantom): 0.0109 mSv/MBq
- Equivalent dose, Pancreas, Male ([3]; human male phantom): 0.00777 mSv/MBq
- Equivalent dose, Red Marrow, Male ([3]; human male phantom): 0.014 mSv/MBq
- Equivalent dose, Skin, Male ([3]; human male phantom): 0.000859 mSv/MBq
- Equivalent dose, Small Intestine, Male ([3]; human male phantom): 0.0031 mSv/MBq
- Equivalent dose, Spleen, Male ([3]; human male phantom): 0.0101 mSv/MBq
- Equivalent dose, Stomach Wall, Male ([3]; human male phantom): 0.00335 mSv/MBq
- Equivalent dose, Testes/Ovaries, Male ([3]; human male phantom): 0.00137 mSv/MBq
- Equivalent dose, Thymus, Male ([3]; human male phantom): 0.00178 mSv/MBq
- Equivalent dose, Thyroid, Male ([3]; human male phantom): 0.000487 mSv/MBq
- Equivalent dose, ULI Wall, Male ([3]; human male phantom): 0.00309 mSv/MBq
- Equivalent dose, Urinary Bladder Wall, Male ([3]; human male phantom): 0.00152 mSv/MBq
- Effective dose, Female ([3]; whole-body, human female phantom): 0.0237 mSv/MBq
- Effective dose, Male ([3]; whole-body, human male phantom): 0.0217 mSv/MBq
